Values quoted from earlier work in publication PMC7642319.

Target: NbpSH3 SH3 (Saccharomyces cerevisiae) (UniProt Q12163)
Sequence (Q12163 107-174): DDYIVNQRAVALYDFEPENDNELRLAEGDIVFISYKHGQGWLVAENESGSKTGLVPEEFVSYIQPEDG

Sequence of Ste20 (Q03497 2-939): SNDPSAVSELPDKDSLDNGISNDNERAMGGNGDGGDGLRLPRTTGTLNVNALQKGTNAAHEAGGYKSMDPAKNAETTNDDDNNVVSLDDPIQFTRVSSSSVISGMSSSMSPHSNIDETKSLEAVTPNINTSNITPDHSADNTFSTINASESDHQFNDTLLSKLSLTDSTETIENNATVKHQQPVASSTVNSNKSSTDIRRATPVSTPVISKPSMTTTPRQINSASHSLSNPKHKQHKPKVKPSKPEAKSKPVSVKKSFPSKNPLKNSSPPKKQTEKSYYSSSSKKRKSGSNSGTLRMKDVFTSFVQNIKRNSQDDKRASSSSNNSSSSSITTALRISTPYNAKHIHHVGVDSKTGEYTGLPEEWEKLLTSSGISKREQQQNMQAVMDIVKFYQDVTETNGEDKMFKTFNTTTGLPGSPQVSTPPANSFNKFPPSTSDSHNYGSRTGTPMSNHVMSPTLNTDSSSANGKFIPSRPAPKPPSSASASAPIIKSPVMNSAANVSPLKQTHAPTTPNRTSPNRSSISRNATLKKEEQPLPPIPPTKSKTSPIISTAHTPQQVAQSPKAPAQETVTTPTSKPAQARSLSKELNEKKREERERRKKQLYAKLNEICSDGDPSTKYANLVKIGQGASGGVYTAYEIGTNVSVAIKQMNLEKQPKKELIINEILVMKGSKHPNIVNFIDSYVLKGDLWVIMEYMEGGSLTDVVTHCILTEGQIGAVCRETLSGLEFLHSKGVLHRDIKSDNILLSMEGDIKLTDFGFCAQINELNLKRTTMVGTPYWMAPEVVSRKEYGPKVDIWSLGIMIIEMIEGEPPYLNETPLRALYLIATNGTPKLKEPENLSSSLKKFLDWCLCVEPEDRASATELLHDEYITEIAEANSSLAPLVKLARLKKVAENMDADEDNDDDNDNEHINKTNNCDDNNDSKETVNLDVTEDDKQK

Kd: 200 nM
Substance: Ste20 (from UniProt Q03497)
